Biological target: T1, cynomolgus monkey FcγRIIa3 extracellular domain, His-tagged (cynomolgus monkey)
T1 construct: also called cyno FcγRIIa3; cynoFcgRIIa3; not shown: C-terminal His-tag
T1 chain: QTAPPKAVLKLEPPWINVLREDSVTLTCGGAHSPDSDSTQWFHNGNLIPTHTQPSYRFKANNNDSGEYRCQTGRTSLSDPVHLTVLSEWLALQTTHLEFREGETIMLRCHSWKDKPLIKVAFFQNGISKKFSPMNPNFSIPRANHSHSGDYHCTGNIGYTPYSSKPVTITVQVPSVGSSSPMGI
Experiment: SPR (BIACORE), captured antibody, FcgR as analyte

B1: M103205H795-MY466/M103202L889-SK1 (antibody, human IgG1, kappa)
heavy: QVTLKESGPVLVKPTETLTLTCTVSGIDLSHDDISWVRQAPGKGLEWVGIISYAGSTYYASWAKGRLTISKDTSKNQVVLTMTNMDPVDTATYYCARGVPAYSHGGDLWGQGTLVTVSSASTKGPSVFPLAPSSKSTSGGTAALGCLVKDYFPEPVTVSWNSGALTSGVHTFPAVLQSSGLYSLSSVVTVPSSSLGTQTYICNVNHKPSNTKVDKKVEPKSCDKTHTCPPCPLPELLTGPSVFLFPPKPKDTLMISRTPEVTCVVVDVSDEDPEVKFNWYVDGVEVHNAKTKPREEQYNSTYRVVSVLTVLHQDWLNGKEYKCKVSNKALPKPIEKTISKAKGQPREPQVYTLPPSREEMTKNQVSLTCLVKGFYPSDIAVEWESNGQPENNYKTTPPVLDSDGSFFLYSKLTVDKSRWQQGNVFSCSVMHEALHNHYTQKSLSLSP
light: DIVMTQSPATLSLSPGERATLSCTSSQSVYHANWLSWFQQKPGQPPKLLIYWASTLAYGVPSRFSGSGSGTDFTLTISSLQPEDAATYYCAGGYGGGRYAFGQGTKVEIKRTVAAPSVFIFPPSDEQLKSGTASVVCLLNNFYPREAKVQWKVDNALQSGNSQESVTEQDSKDSTYSLSSTLTLSKADYEKHKVYACEVTHQGLSSPVTKSFNRGEC
notes: copies: 2 + 2
B1 gave a Kd of 4.4 µM.

B2: M103205H795-MY468/M103202L889-SK1 (antibody, human IgG1, kappa)
heavy: QVTLKESGPVLVKPTETLTLTCTVSGIDLSHDDISWVRQAPGKGLEWVGIISYAGSTYYASWAKGRLTISKDTSKNQVVLTMTNMDPVDTATYYCARGVPAYSHGGDLWGQGTLVTVSSASTKGPSVFPLAPSSKSTSGGTAALGCLVKDYFPEPVTVSWNSGALTSGVHTFPAVLQSSGLYSLSSVVTVPSSSLGTQTYICNVNHKPSNTKVDKKVEPKSCDKTHTCPPCPNPELLTGPSVFLFPPKPKDTLMISRTPEVTCVVVDVSDEDPEVKFNWYVDGVEVHNAKTKPREEQYNSTYRVVSVLTVLHQDWLNGKEYKCKVSNKALPKPIEKTISKAKGQPREPQVYTLPPSREEMTKNQVSLTCLVKGFYPSDIAVEWESNGQPENNYKTTPPVLDSDGSFFLYSKLTVDKSRWQQGNVFSCSVMHEALHNHYTQKSLSLSP
light: DIVMTQSPATLSLSPGERATLSCTSSQSVYHANWLSWFQQKPGQPPKLLIYWASTLAYGVPSRFSGSGSGTDFTLTISSLQPEDAATYYCAGGYGGGRYAFGQGTKVEIKRTVAAPSVFIFPPSDEQLKSGTASVVCLLNNFYPREAKVQWKVDNALQSGNSQESVTEQDSKDSTYSLSSTLTLSKADYEKHKVYACEVTHQGLSSPVTKSFNRGEC
notes: copies: 2 + 2
With B2 the Kd was 5.2 µM.

B3: M103205H795-MY467/M103202L889-SK1 (antibody, human IgG1, kappa)
heavy: QVTLKESGPVLVKPTETLTLTCTVSGIDLSHDDISWVRQAPGKGLEWVGIISYAGSTYYASWAKGRLTISKDTSKNQVVLTMTNMDPVDTATYYCARGVPAYSHGGDLWGQGTLVTVSSASTKGPSVFPLAPSSKSTSGGTAALGCLVKDYFPEPVTVSWNSGALTSGVHTFPAVLQSSGLYSLSSVVTVPSSSLGTQTYICNVNHKPSNTKVDKKVEPKSCDKTHTCPPCPMPELLTGPSVFLFPPKPKDTLMISRTPEVTCVVVDVSDEDPEVKFNWYVDGVEVHNAKTKPREEQYNSTYRVVSVLTVLHQDWLNGKEYKCKVSNKALPKPIEKTISKAKGQPREPQVYTLPPSREEMTKNQVSLTCLVKGFYPSDIAVEWESNGQPENNYKTTPPVLDSDGSFFLYSKLTVDKSRWQQGNVFSCSVMHEALHNHYTQKSLSLSP
light: DIVMTQSPATLSLSPGERATLSCTSSQSVYHANWLSWFQQKPGQPPKLLIYWASTLAYGVPSRFSGSGSGTDFTLTISSLQPEDAATYYCAGGYGGGRYAFGQGTKVEIKRTVAAPSVFIFPPSDEQLKSGTASVVCLLNNFYPREAKVQWKVDNALQSGNSQESVTEQDSKDSTYSLSSTLTLSKADYEKHKVYACEVTHQGLSSPVTKSFNRGEC
notes: copies: 2 + 2
For B3, the Kd was 4.7 µM.
